Assays:
Assay in all cases: holdup assay
Set-up in all cases: key: below the threshold = too weak to quantify, mostly under pKd 3.1 to 4
Details in all cases: plain residues with an end cap or a label only (N-terminal biotin on a linker: ado-ado)
APBA2_2, Q99767 = target: T1, APBA2_2, Q99767
T1 sequence (Q99767 654-744, limits assumed, looked up): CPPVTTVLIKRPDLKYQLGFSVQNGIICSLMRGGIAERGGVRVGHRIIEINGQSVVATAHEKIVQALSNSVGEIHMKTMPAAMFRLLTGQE

GRIP2_5, Q9C0E4 = target: GRIP2_5, Q9C0E4
MAGI2_5, Q86UL8 = target: MAGI2_5, Q86UL8
MAGI2_5, Q86UL8, sequence (Q86UL8 915-1017): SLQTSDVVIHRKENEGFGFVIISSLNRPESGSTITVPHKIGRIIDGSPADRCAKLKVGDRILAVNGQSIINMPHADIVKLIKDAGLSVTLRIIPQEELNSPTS

NHERF3_1, Q5T2W1 = target: T2, NHERF3_1, Q5T2W1
T2 sequence (Q5T2W1 4-100, limits assumed, looked up): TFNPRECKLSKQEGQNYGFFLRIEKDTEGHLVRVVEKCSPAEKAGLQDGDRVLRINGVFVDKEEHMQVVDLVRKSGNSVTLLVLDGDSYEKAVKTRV

DLG1_1, Q12959 = target: DLG1_1, Q12959
SCRIB_3, Q14160 = target: SCRIB_3, Q14160
SCRIB_3, Q14160, sequence (Q14160 999-1103): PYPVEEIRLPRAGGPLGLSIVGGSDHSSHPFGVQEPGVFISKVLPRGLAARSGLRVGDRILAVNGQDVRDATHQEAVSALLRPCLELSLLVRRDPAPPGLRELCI

TJP1_3, Q07157 = target: TJP1_3, Q07157
TJP1_3, Q07157, sequence (Q07157 416-512): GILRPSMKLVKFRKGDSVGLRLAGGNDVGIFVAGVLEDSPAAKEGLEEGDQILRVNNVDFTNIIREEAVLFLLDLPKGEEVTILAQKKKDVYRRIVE

MPP7, Q5T2T1 = target: T3, MPP7, Q5T2T1
T3 sequence (Q5T2T1 134-230, limits assumed, looked up): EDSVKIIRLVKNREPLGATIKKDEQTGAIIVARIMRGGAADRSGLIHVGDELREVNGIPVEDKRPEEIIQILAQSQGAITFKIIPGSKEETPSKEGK

MPP2, Q14168 = target: T4, MPP2, Q14168
T4 sequence (Q14168 180-250, limits assumed, looked up): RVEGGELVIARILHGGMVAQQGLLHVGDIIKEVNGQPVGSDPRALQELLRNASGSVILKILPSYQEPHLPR

FRMPD4, Q14CM0 = target: FRMPD4, Q14CM0
FRMPD4, Q14CM0, sequence (Q14CM0 67-160): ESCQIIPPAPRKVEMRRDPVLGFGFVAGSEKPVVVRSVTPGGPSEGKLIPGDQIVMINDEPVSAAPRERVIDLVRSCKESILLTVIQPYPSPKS

GRIP2_6, Q9C0E4 = target: GRIP2_6, Q9C0E4
GRIP2_6, Q9C0E4, sequence (Q9C0E4 648-740): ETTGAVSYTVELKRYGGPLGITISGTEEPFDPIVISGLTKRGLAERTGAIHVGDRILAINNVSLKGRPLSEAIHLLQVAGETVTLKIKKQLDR

GRIP2_3, Q9C0E4 = target: GRIP2_3, Q9C0E4
GRIP2_3, Q9C0E4, sequence (Q9C0E4 238-339): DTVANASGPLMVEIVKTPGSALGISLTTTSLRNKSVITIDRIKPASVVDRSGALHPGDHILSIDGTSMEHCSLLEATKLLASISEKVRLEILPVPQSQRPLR

ARHGAP21, Q5T5U3 = target: T5, ARHGAP21, Q5T5U3
T5 sequence (Q5T5U3 45-169, limits assumed, looked up): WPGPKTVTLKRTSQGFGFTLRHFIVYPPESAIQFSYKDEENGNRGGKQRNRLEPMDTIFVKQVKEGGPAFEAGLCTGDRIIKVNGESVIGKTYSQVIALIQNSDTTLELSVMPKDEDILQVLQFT

SNTG1, Q9NSN8 = target: T6, SNTG1, Q9NSN8
T6 sequence (Q9NSN8 52-150, limits assumed, looked up): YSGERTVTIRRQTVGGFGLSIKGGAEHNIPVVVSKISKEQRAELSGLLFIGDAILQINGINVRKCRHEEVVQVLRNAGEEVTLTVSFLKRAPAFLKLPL

LNX1_1, Q8TBB1 = target: LNX1_1, Q8TBB1
LNX1_1, Q8TBB1, sequence (Q8TBB1 261-371): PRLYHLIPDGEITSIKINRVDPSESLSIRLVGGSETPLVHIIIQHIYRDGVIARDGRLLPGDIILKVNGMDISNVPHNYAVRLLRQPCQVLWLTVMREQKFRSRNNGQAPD

GRIP2_4, Q9C0E4 = target: GRIP2_4, Q9C0E4
GRIP2_4, Q9C0E4, sequence (Q9C0E4 446-548): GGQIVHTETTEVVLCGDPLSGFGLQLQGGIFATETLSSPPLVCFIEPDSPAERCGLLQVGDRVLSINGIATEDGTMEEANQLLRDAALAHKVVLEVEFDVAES

PDZRN3_1, Q9UPQ7 = target: T7, PDZRN3_1, Q9UPQ7
T7 sequence (Q9UPQ7 244-349, limits assumed, looked up): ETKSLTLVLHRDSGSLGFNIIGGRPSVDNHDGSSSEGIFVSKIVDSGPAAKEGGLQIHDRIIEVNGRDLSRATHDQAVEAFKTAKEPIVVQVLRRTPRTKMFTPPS

IL16_1, Q14005 = target: IL16_1, Q14005
IL16_1, Q14005, sequence (Q14005 210-306): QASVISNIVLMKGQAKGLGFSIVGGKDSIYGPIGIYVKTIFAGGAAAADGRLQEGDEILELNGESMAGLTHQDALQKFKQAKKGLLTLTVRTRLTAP

LNX1_3, Q8TBB1 = target: LNX1_3, Q8TBB1
LNX1_3, Q8TBB1, sequence (Q8TBB1 500-596): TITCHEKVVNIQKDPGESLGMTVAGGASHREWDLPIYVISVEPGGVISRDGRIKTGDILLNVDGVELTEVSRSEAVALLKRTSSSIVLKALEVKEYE

Inadl_10, Q8NI35 = target: Inadl_10, Q8NI35
Inadl_10, Q8NI35, sequence (Q8NI35 1673-1763): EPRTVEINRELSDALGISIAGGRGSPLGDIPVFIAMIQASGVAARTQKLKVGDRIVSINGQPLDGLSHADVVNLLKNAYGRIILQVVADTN

APBA1_2, Q02410 = target: T8, APBA1_2, Q02410
T8 sequence (Q02410 742-832, limits assumed, looked up): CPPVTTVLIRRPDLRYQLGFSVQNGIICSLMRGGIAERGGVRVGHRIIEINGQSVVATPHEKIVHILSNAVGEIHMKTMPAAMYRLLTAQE

DLG4_2, P78352 = target: DLG4_2, P78352
DLG4_2, P78352, sequence (P78352 155-259): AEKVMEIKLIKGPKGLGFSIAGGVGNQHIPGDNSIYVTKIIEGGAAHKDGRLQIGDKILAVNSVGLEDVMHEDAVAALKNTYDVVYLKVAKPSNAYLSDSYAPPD

PCLO, Q9Y6V0 = target: T9, PCLO, Q9Y6V0
T9 sequence (Q9Y6V0 4491-4600, limits assumed, looked up): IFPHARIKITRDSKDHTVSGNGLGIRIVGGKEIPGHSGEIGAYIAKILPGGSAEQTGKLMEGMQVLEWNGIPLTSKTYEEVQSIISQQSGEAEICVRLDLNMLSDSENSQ

IL16_3, Q14005 = target: IL16_3, Q14005
IL16_3, Q14005, sequence (Q14005 1107-1207): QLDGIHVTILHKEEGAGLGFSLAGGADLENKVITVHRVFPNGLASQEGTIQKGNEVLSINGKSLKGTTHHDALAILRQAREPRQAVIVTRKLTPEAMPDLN

GRID2IP_2, A4D2P6 = target: GRID2IP_2, A4D2P6
GRID2IP_2, A4D2P6, sequence (A4D2P6 272-370): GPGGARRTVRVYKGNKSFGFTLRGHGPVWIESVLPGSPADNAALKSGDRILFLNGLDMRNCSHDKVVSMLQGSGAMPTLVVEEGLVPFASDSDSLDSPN

MAGI2_4, Q86UL8 = target: MAGI2_4, Q86UL8
MAGI2_4, Q86UL8, sequence (Q86UL8 772-865): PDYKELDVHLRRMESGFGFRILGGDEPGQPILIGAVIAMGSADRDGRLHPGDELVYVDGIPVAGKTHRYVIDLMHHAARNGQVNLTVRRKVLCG

LNX2_3, Q8N448 = target: T10, LNX2_3, Q8N448
T10 sequence (Q8N448 463-564, limits assumed, looked up): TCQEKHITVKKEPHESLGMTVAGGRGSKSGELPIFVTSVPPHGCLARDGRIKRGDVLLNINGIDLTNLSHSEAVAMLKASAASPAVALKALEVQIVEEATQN

PTPN3, P26045 = target: PTPN3, P26045
PTPN3, P26045, sequence (P26045 505-587): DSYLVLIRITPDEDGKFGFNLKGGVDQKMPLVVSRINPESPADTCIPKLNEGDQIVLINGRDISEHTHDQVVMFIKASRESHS

Measured: pKd

GRIP2_5, Q9C0E4, sequence (Q9C0E4 544-642): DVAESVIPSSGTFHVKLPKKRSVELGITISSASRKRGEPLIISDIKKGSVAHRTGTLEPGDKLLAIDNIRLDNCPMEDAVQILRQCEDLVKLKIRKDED

APIAGFSSFV [SDK2, Q58EX2]
4.04: ARHGAP21, Q5T5U3
5.08: NHERF3_1, Q5T2W1
3.94: MAGI2_4, Q86UL8
4.49: DLG4_2, P78352
3.83: SNTG1, Q9NSN8
4.25: Inadl_10, Q8NI35
4.06: SCRIB_3, Q14160 | IL16_1, Q14005
4.39: PTPN3, P26045
4.61: GRID2IP_2, A4D2P6
3.78: PDZRN3_1, Q9UPQ7
4.21: DLG1_1, Q12959
4.44: MAGI2_5, Q86UL8
5.16: LNX1_1, Q8TBB1
4.15: APBA1_2, Q02410
below the threshold: all other assays above

LAHVKHKEQI [AQP3, Q92482]
3.98: ARHGAP21, Q5T5U3
below the threshold: all other assays above

EDPRVEVTQF [SLC22A9, Q8IVM8]
4.86: MAGI2_5, Q86UL8
4.18: PTPN3, P26045
3.66: SCRIB_3, Q14160
4.58: NHERF3_1, Q5T2W1
below the threshold: all other assays above

RFQQRMQTHV [KIRREL1, Q96J84]
4.17: DLG1_1, Q12959
3.76: MAGI2_4, Q86UL8
3.92: APBA1_2, Q02410
5.03: NHERF3_1, Q5T2W1
3.96: GRID2IP_2, A4D2P6
4.2: PTPN3, P26045
4.33: SCRIB_3, Q14160
3.54: GRIP2_6, Q9C0E4
3.74: MAGI2_5, Q86UL8
4.64: DLG4_2, P78352
below the threshold: all other assays above
